The nature of this data set: yeast display, Sf9 membrane polyspecificity reagent, FACS + sequencing; frameworks hold sequencing errors. The gist of the method: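 Nanobodies came from a synthetic yeast display library in Saccharomyces cerevisiae BJ5465, induced with galactose for 36–48 hours and stained for 1 hour at 4 °C with 10% biotinylated, detergent-solubilized Sf9 membrane reagent. Cells were enriched on streptavidin microbeads and then FACS-sorted, with low and high (top ~1%) gates set on anti-HA fluorescence for expression and streptavidin fluorescence for reagent binding. Each polyreactivity label reflects the gate a clone came from. Genes were amplified by colony PCR, sequenced by MiSeq 2 × 250 and filtered by CDR length.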
For the sequence “QVQLVESGGGLVQAGGSLRLSCAASGSIFDRNAMGWYRQAPGKERELVAAISVSGGSTYYADSVKGRFTISRDNAKNTVYLQMNSLKPEDTAVYYCAKAGRYANLPYGYWGQGTQVTVSS”, the “polyreactivity (PSR sort gate)” value is given as “high polyreactivity”.
For “QVQLVESGGGLVQAGGSLRLSCAASGSIFDRNAMGWYRQAPGKERELVASISYSGGTTYADSVKGRFTISRDNAKNTVYLQMNSLKPEDTAVYYCNAGGVYPRFTFLEQGYEMDYWGQGTQVTVSS” the value was “low polyreactivity”; for “QVQLVESGGGLVQAGGSLRLSCAASGSIFDRYAMGWYRKAPGKERELVASITYSGGSTYYADSVKGRFTISRDNAKNTVYLQMKSLKPEDTAVYYCAKVIRLVGDYDYWGQGTQVTVSS”, “low polyreactivity”; for “QVQLVESGGGLVQAGGSLRLSCAASGSIFDRYAMGWYRQAPGKERELVASISNRGGRTFYADSVKGRFTISRDNAKNTVYLQMNSLKPEDTAVYYCARKTYYTGDFLGREYGYWGQGTQVTVSS”, “low polyreactivity”.
In the case of “QVQLVESGGGLVQAGGSLRLSCAASGSIFDSKAMGWYRQAPGKERELVAAISQGGDDTYYADSVKGRFTISRDNAKNTVYLQMNSLKPEDTAVYYCAAEFFYITGAYDYWGQGTQVTVSS”, the “polyreactivity (PSR sort gate)” value is reported as “low polyreactivity”.
Consider “QVQLVESGGGLVQAGGSLRLSCAASGSIFDSNAMGWYRQAPGKERELVADIRGIGGSTYYADSVKGRFTISRDHAKNTVYLQMNSLKPEDTAVYYCNTSTLGGYYWGQGTQVTVSS”, for which the “polyreactivity (PSR sort gate)” value is listed as “low polyreactivity”.
For the sequence “QVQLVESGGGLVQAGGSLRLSCAASGSIFDSYAMGWYRQAPGKERELVASISSDGGGTYYADSVKGRFTISRDNAKNTVYLQMNSLKPEDTAVYYCARTRTYNSRTMDYWGQGTQVTVSS”, the “polyreactivity (PSR sort gate)” value is recorded as “low polyreactivity”.
Take “QVQLVESGGGLVQAGGSLRLSCAASGSIFDSYANGWSRQAPGKERELVAAISSRGGRTYYADSVKGRFTISRDNAKNTVYLQMNSLKPEDTAVYYCAAGLYRYYWYGFDYWGQGTQVTVSS”: the “polyreactivity (PSR sort gate)” value is “high polyreactivity”.
On to “QVQLVESGGGLVQAGGSLRLSCAASGSIFDTYAMGCYRPAPGKERELVAAICWSDTSTYADSVKGRFTISRDNAKNTVYLQMNSMKTEDTAVSYCAADFYYYSYYEYVYWGQGTLVTVSS”, for which the “polyreactivity (PSR sort gate)” value is listed as “low polyreactivity”.
For the sequence “QVQLVESGGGLVQAGGSLRLSCAASGSIFDTYAMGWYRQAPGKERELVAAITWSGSSTYYADSVKGRFTISRDNAKNTVSLQMNRLKPEDTAVYYCAKRQYLYTSKYDYWGQGTQVTVSS”, the “polyreactivity (PSR sort gate)” value is given as “high polyreactivity”.
As for “QVQLVESGGGLVQAGGSLRLSCAASGSIFDVNAMGWYRQAPGKERELVAGISWSGGSTYYADSVKGRFTISRDNAKNTVYLQMNSLKPEDTAVYYCNAEGPIYFYFYRGMDYWGQGTQVTVSS”, the “polyreactivity (PSR sort gate)” value is listed as “low polyreactivity”.
With “QVQLVESGGGLVQAGGSLRLSCAASGSIFDVYAMGWYRQAPGKERELVAAITGGGSTYYADSVKGRFTISRDNAKNSVYLQMNSLKPEDTAVYYCNADRRRRSGGFAGWHFQRNEYWGHGTQVTVSS”, the “polyreactivity (PSR sort gate)” value was “low polyreactivity”.
Regarding “QVQLVESGGGLVQAGGSLRLSCAASGSIFDVYGMGWYRQAPGKEREFVADITSRGTRTYYADSVKGRFTISRDNAKNTVYLQMNSLKPEDTAVYYCNADRYTAVRAYDYWGQGTQVTVSS”, the “polyreactivity (PSR sort gate)” value is “low polyreactivity”.
For “QVQLVESGGGLVQAGGSLRLSCAASGSIFDWNAMGWYRQAPGKERELVAAISGTGGTKYADSVKGRFTISRDNAKNTVYLQMNSLKPEDTAVYYCAVGLVPLRDGWHFYYEFDSWGQGTQVTVSS” the value was “low polyreactivity”.
On to “QVQLVESGGGLVQAGGSLRLSCAASGSIFDWYVMGWYRQARGKERELVAAITSTGSTYYADSVKGRFTISRDNAKNTVYLQMNSLKPEDTAVYYCAAQRYSTFTYDYWGQGTQVTVSS”, for which the “polyreactivity (PSR sort gate)” value is reported as “low polyreactivity”.
For the sequence “QVQLVESGGGLVQAGGSLRLSCAASGSIFDYNAMGWYRQAPGKERELVAGITFIGGSTYYADSVKGRFTISRDNAKNTVYLQMNSLKPEDTAVYYCNADVAPGIFYGYESWGQGTQVSVSS”, the “polyreactivity (PSR sort gate)” value is on record as “low polyreactivity”.
For “QVQLVESGGGLVQAGGSLRLSCAASGSIFDYNTMGWYRQAPGKERELVATISWSGDSTYYADSVKGRFTISRDNAKNTVYLQMNSLKPEDTAVYYCAKTAPPERYSAWRYSWGQGTQVTVSS” the value was “low polyreactivity”; for “QVQLVESGGGLVQAGGSLRLSCAASGSIFDYNTMGWYRQAPGKVRELVAVISGTGGSTYYADSVKGRFTISRVNAKNTVYVQLNSMKPEDTAVYYCAAEGYYSNYHYWGQGTQVTVSS”, “low polyreactivity”.
For “QVQLVESGGGLVQAGGSLRLSCAASGSIFDYYAMGWYRQAPGKETELVAAITYGGGSTYYADSVKGRFTISRDNAKNTVYLQMNSLKPEDTAVYYCNALGENYQFNYWGQGTQVTVSS” the value was “low polyreactivity”; for “QVQLVESGGGLVQAGGSLRLSCAASGSIFDYYTMGCYRQAAGKERELVATIRSGDSTNYADSLKGRFTISRDIEMNRVYLQMNSLKPEDTAVYYCAAVDGAYPTLYDYWGQGTQVTVSS”, “low polyreactivity”; for “QVQLVESGGGLVQAGGSLRLSCAASGSIFDYYVMGWYRQAPGKERELVAAISWSGASTYYADSVKGRFTISRDNAKNTVYLHMNSLKPEDTAVYYCAADYGVNTLIDYDYWGQGTQVTVSS”, “low polyreactivity”.
For the sequence “QVQLVESGGGLVQAGGSLRLSCAASGSIFEDNVMGWYRQAPGKEREFVADITAIGGSTYYADSVKGRFTISRDNAKNTVYLQMNSLKPEDTAVDYCAAGFYVDYQLYEYWGQGTQVTVSS”, the “polyreactivity (PSR sort gate)” value is on record as “high polyreactivity”.
Regarding “QVQLVESGGGLVQAGGSLRLSCAASGSIFEEYAMGWYRHAPGKERELVARIDESGGSTYYADSVKGRFTISRDNAKNTVYLQMNSLKPEDTAVYYCAAERYSDSWGYYSVDEGSWEMDYWGQGTQVTVSS”, the “polyreactivity (PSR sort gate)” value is on record as “low polyreactivity”.
Turning to “QVQLVESGGGLVQAGGSLRLSCAASGSIFEFYTMGWYRQAPGKERELVAAITASGGSTYYADSVKGRFTISRDNAKNTVYLQMNSLKPEDTAVYYCAARFRKQSKTPSPRRYDSWGQGTQVTVSS”, the “polyreactivity (PSR sort gate)” value was “high polyreactivity”.
For the sequence “QVQLVESGGGLVQAGGSLRLSCAASGSIFEGNARGWYRQAPGKERELVAAISTTGGITYYADAVKGRFTISRANAKNTVDLQKNSLKPEDTAVDYCAADPSQPRNDSSNYDYWGQGTQVTVSS”, the “polyreactivity (PSR sort gate)” value is reported as “low polyreactivity”.
With “QVQLVESGGGLVQAGGSLRLSCAASGSIFEINAMGWYRQAPGKERELVAAITQSGGITYYADSVKGRFTISRDNAKNTVYLQINSLKPEDTAVYYCNTPLLKRTTRGRERNYWGQGTQVTVSS”, the “polyreactivity (PSR sort gate)” value is listed as “low polyreactivity”.
Turning to “QVQLVESGGGLVQAGGSLRLSCAASGSIFEIYAMGWYRQAPGKERELVASITWSGGSTYYADSVKGRFTISRDNAKNTVYLQMNSRKPEDTAVYYCATDKLYGRTVRMDYWGQGTQVTVSS”, the “polyreactivity (PSR sort gate)” value was “low polyreactivity”.
For “QVQLVESGGGLVQAGGSLRLSCAASGSIFEPNAMGWYRQAPGKERELVAAISWNDGDTYYADSVKGRFTISRDNAKNTVYLQMNSLKPVDTAVYYCAAETGYAFDYWGQGTQVTVSS” the value was “low polyreactivity”; for “QVQLVESGGGLVQAGGSLRLSCAASGSIFEPYAMGWYRQAPGKERELVAAISSDGTTNYADSVKGRFTISRDNAKNTVYLQMNSLKPEDTAVYYCAADVFNWGYYYWGQGTQVTVSS”, “low polyreactivity”.
Take “QVQLVESGGGLVQAGGSLRLSCAASGSIFEPYAMGWYRQAPGKERELVAGIRKSGATTYYADSVKGRFTISRDNAKNTVYLQMNSLKPEDSAVYYCNAVVKSSSRGSISHPGYDYWGQGTQVTVSS”: the “polyreactivity (PSR sort gate)” value is reported as “high polyreactivity”.
Take “QVQLVESGGGLVQAGGSLRLSCAASGSIFEPYTMGWYRQAPGKERELVAAITGSGGSTFYADSVKGRFTISRDNAKNTVYLQMNSLKPEDTAVYYCNAYAYPYTDVDYWGQGTQVTVSS”: the “polyreactivity (PSR sort gate)” value is given as “low polyreactivity”.
“QVQLVESGGGLVQAGGSLRLSCAASGSIFESYAMGCYRQAPGKERELVAAITKRGGSTYYADSVKGRFTISRDNSKNTFYLQMNSLKPEDTAVYYCNARSPGIGPIYDYWGQGTQVTVSS”: the “polyreactivity (PSR sort gate)” value is “low polyreactivity”.
Regarding “QVQLVESGGGLVQAGGSLRLSCAASGSIFESYAMGWYRQAPGKERELVAAITLSGTSTYYADSVKGRFTISRDNAKNTVYLQMNSLKPEDTAVYYCNAKPIPVRGSYDYWGQGTQVTVSS”, the “polyreactivity (PSR sort gate)” value is recorded as “low polyreactivity”.
As to “QVQLVESGGGLVQAGGSLRLSCAASGSIFESYAMGWYRQAPGKEWELVASISGGGSTYYADSVKGRFTISRDNAKNTVYLQMNSLKPEDTAVYYCATVYVRYRQSRLIRYGYWVQGTQVTVSS”, the “polyreactivity (PSR sort gate)” value is “high polyreactivity”.
For the sequence “QVQLVESGGGLVQAGGSLRLSCAASGSIFETNAMGWYRQAPGKERELVAAITGSGGSTYYADSVKGRFTISRDNAKNTVYLQMNSLIPVDTEVYYCAADSSGQSRFGYWGQGTQVTVSS”, the “polyreactivity (PSR sort gate)” value is “low polyreactivity”.
For the sequence “QVQLVESGGGLVQAGGSLRLSCAASGSIFETYAMGWYRQAPGKEWELVAAISRTSGRTYYADSVKGRFTISRDNAKNTVYLQMNSLKPDDTAVYYCAAVVRNPGTYDYWGHGTQVTVSS”, the “polyreactivity (PSR sort gate)” value was “high polyreactivity”.
As to “QVQLVESGGGLVQAGGSLRLSCAASGSIFEVYAMGWYRQAPVKERELVAAIDYSDGTTYYADSVKGRFTISRDNAKNTVYFQMNSLKPEDTAVYYCAADFPGQHYDYWGQGTQVTVSS”, the “polyreactivity (PSR sort gate)” value was “low polyreactivity”.
Regarding “QVQLVESGGGLVQAGGSLRLSCAASGSIFEWYAMGWYRQAPGKERELVAAISSSGTSTYYADSVKGRFTISRDNAKNTVYLQMNSLKPEDTAVYYCNTDLSRLSQHDYWGQGTQVTVSS”, the “polyreactivity (PSR sort gate)” value is reported as “low polyreactivity”.
For “QVQLVESGGGLVQAGGSLRLSCAASGSIFEWYAMGWYRQAPGKERELVADISSVGSTYYADSVKGRFTISRDNAKNTVYLQMNSLKPEDTAVYYCNTSYIIWYDSWGQGTQVTVSS”, the “polyreactivity (PSR sort gate)” value is on record as “low polyreactivity”.
For “QVQLVESGGGLVQAGGSLRLSCAASGSIFEYNGMGWSRQAPGKERELVAAITTTGTTDYADSVKGRFTISRDNAKNTVYLQMNSLKPEDTAVYYCAADYTYYYKGEYDYWGQGTQVTVSS” the value was “low polyreactivity”; for “QVQLVESGGGLVQAGGSLRLSCAASGSIFEYNGMGWYRQAPGKERELVAAITTTGTTDYADSVKGRFTISRDNAKNTVYLQMNSLKPEDTAVYYCAADYTYYYKGEYDYWGQGTQVTVSS”, “low polyreactivity”.

These data come from the nanobody polyreactivity screen of Harvey et al. (2022).
